Laboratory results reported in patent publication US20220235103A1.
Numbering of substitutions follows the chain as printed.

B1: ALE049 (designed binder)
chain: MRGSHHHHHHGSDLGKKLLEAARAGQDDEVRELLKAGADVNAKDYFSHTPLHLAARNGHLKIVEVLLKAGADVNAKDFAGKTPLHLAANEGHLEIVEVLLKAGADVNAQDIFGKTPADIAADAGHEDIAEVLQKAAGSPTPTPTTPTPTPTTPTPTPTGSDLGKKLLEAARAGQDDEVRELLKAGADVNAKDYFSHTPLHLAARNGHLKIVEVLLKAGADVNAKDFAGKTPLHLAANEGHLEIVEVLLKAGADVNAQDIFGKTPADIAADAGHEDIAEVLQKAAGSPTPTPTTPTPTPTTPTPTPTGSDLGKKLLQAARAGQLDEVRELLKAGADVNAKDREGITPLHLAAQHGHLEIVEVLLKAGADVNAKDVWGRTPLHLAAWQGHLEIVEVLLKAGADVNAKDLAGATPLHVAALYGHLEIVEVLLKAGADVNAQDKSGKTPADLAARAGHQDIAEVLQKAAGSPTPTPTTPTPTPTTPTPTPTGSDLGKKLLQAARAGQLDEVRELLKAGADVNAKDREGKTPLHVAAQEGHLEIVEVLLKAGADVNAKDVWGRTPLHLAAWIGHLEIVEVLLKAGADVNAKDVSGATPLHAAALHGHLEIVEVLLNAGADVNAQDKSGKTPADLAARAGHQDIAEVLQKAAGSPTPTPTTPTPTPTTPTPTPTGSDLGKKLLQAARAGQLDEVRELLKAGADVNAKDQEGITPLHVAAHQGHLEIVEVLLKAGADVNAKDVWGRTPLHLAAWRGHLEIVEVLLKAGADVNAKDHAGATPLHAAALSGHLEIVEVLLKAGADVNAQDKSGKTPADLAARAGHQDIAEVLQKAA
B2: vS07_29B10 (designed binder)
chain: MRGSHHHHHHGSDLGKKLLQAARAGQLDEVRELLKAGADVNAKDREGITPLHLAAQHGHLEIVEVLLKAGADVNAKDVWGRTPLHLAAWQGHLEIVEVLLKAGADVNAKDLAGATPLHVAALYGHLEIVEVLLKAGADVNAQDKSGKTPADLAARAGHQDIAEVLQKAA
B3: vS07_23E04 (designed binder)
chain: B2 chain with R45Q, L53V, Q56H, H57Q, Q90R, L111H, V119A, Y123S
B4: vS07_12C06 (designed binder)
chain: B2 chain with I48K, L53V, H57E, Q90I, L111V, A112S, V119A, Y123H, K134N

Biological target: SARS-CoV-2 spike protein variant B.1.1.7 (SARS-CoV-2), P0DTC2
Assay: cell-based or functional assay

Binder | VSV Pseudotype Neutralization Assay IC50
B1 | 1.7 ng/mL
B2 | 4.6 ng/mL
B3 | 11.7 ng/mL
B4 | 5.4 ng/mL
